Experimental data from patent US20230265179A1 (TWIST BIOSCIENCE, published 2023).

T1: CD40L (UniProt P29965 1-261, limits assumed)
T1 construct: whole, on cells; also called cytokine over-expressing Expi293 cells (CD40L)
T1 sequence (looked up): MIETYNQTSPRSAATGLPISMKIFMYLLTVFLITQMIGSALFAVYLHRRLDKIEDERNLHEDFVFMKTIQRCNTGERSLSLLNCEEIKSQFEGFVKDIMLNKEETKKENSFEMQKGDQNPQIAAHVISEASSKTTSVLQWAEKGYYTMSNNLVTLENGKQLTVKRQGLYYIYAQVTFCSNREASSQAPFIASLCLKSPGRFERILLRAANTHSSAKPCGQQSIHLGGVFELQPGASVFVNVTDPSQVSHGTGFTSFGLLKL


molecular target: T1, CD40L; experiment: flow cytometry, 100 nM IgG, CD40L over-expressing Expi293 cells over parent Expi293 cells
Description: All incubations and washes were in buffer containing PBS+1% BSA. MFI Ratio is defined by the mean fluorescence intensity (MFI) of the cytokine over-expressing Expi293 cell over the Expi293 parent cell. […] EC50 was calculated in GraphPad Prism.

| Binder | 100 nM FACS (MFI Ratio) [MFI ratio] |
| --- | --- |
| CD40L-210 (antibody, V domains shown) VH: EVQLLESGGGLVQPGGSLRLSCAASGGYNFRDYMHWVRQAPGKGLEWVATISGGGINTYYPDSVKGRFTISRDNSKNTLYLQMNSLRAEDTAVYYCAKDLGQGFDYWGQGTLVTVSS VL: DIQMTQSPSSLSASVGDRVTITCSGDKLGDKYTSWYQQKPGKVPKLLIYQNDKRPSGVPSRFSGSGSGTDFTLTISSLQPEDFATYYCQQNNNWPTTFGQGTKVEIK | 2.2 |
| CD40L-208 (antibody, V domains shown) VH: EVQLLESGGGLVQPGGSLRLSCAASGFTFASYEMTWVRQAPGKGLEWVSSITSEGGSTYYADSVKGRFTISRDNSKNTLYLQMNSLRAEDTAVYYCAKPDKDFDYWGQGTLVTVSS VL: DIQMTQSPSSLSASVGDRVTITCRASQTIGDYLNWYQQKPGKAPKLLIYLGSELQSGVPSRFSGSGSGTDFTLTINSLQPEDFATYYCQTWDTGESGVFGQGTKVEIK | 1.6 |
| CD40L-214 (antibody, V domains shown) VH: EVQLLESGGGLVQPGGSLRLSCAASGFTFEDTEMDWVRQAPGKGLEWVSSITSEGGSTYYADSVKGRFTISRDNSKNTLYLQMNSLRAEDTAVYYCAKPDVLFDYWGQGTLVTVSS VL: DIQMTQSPSSLSASVGDRVTITCSGDNLRGYYASWYQQKPGKAPKLLIYGENSRPSGVPSRFSGSGSGTDFTLTISSLQPEDFATYYCQQSYENPLTFGQGTKVEIK | 7.3 |
| CD40L-217 (antibody, V domains shown) VH: EVQLLESGGGLVQPGGSLRLSCAASGFTFASYEMTWVRQAPGKGLEWVSSITSEGGSTYYADSVKGRFTISRDNSKNTLYLQMNSLRAEDTAVYYCAKPDKIFDYWGQGTLVTVSS VL: DIQMTQSPSSLSASVGDRVTITCKASENVDTYVSWYQQKPGKAPKLLIYDDIDRPSGVPSRFSGSGSGTDFTLTISSLQPEDFATYYCQQSYSSPRTFGQGTKVEIK | 7.7 |
| CD40L-218 (antibody, V domains shown) VH: EVQLLESGGGLVQPGGSLRLSCAASGFDFSDYEMSWVRQAPGKGLEWVSSITSEGGSTYYADSVKGRFTISRDNSKNTLYLQMNSLRAEDTAVYYCAKPDVLFDYWGQGTLVTVSS VL: DIQMTQSPSSLSASVGDRVTITCRTSQSLSSYLHWYQQKPGKAPKLLIYQNDKRPSGVPSRFSGSGSGTDFTLTISSLQPEDFATYYCKQSYDLFTFGQGTKVEIK | 5.1 |
| CD40L-219 (antibody, V domains shown) VH: EVQLLESGGGLVQPGGSLRLSCAASGFDFSDYEMSWVRQAPGKGLEWVSSITSEGGSTYYADSVKGRFTISRDNSKNTLYLQMNSLRAEDTAVYYCAKPDQFFDYWGQGTLVTVSS VL: DIQMTQSPSSLSASVGDRVTITCRASQSISNNLNWYQQKPGKAPKLLIYGTSYRYSGVPSRFSGSGSGTDFTLTISSLQPEDFATYYCQQTYDTPLTFGQGTKVEIK | 2.1 |
| CD40L-216 (antibody, V domains shown) VH: EVQLLESGGGLVQPGGSLRLSCAASGFDFSDYEMSWVRQAPGKGLEWVSSITSEGGSTYYADSVKGRFTISRDNSKNTLYLQMNSLRAEDTAVYYCAKPDQFFDYWGQGTLVTVSS VL: DIQMTQSPSSLSASVGDRVTITCRASQPIAYFLSWYQQKPGKAPKLLIYENNNRPSGVPSRFSGSGSGTDFTLTISSLQPEDFATYYCQPSFLYPYTFGQGTKVEIK | 22.4 |
| CD40L-211 (antibody, V domains shown) VH: EVQLLESGGGLVQPGGSLRLSCAASGGYNFRDYMHWVRQAPGKGLEWVAEIRNKANNHATKYADSVKGRFTISRDNSKNTLYLQMNSLRAEDTAVYYCAKNLGQGFDYWGQGTLVTVSS VL: DIQMTQSPSSLSASVGDRVTITCRASQTIGDYLNWYQQKPGKAPKLLIYETSKLASGVPSRFSGSGSGTDFTLTISSLQPEDFATYYCQQSYSTPTFGQGTKVEIK | 12.1 |
